Earlier results on 1 substance are cited in paper PMC10219982.

The target of the data set is Follistatin (UniProt P19883). The data set can be described thus: SPR.
Chain of UniProt P19883 (P19883 30-344): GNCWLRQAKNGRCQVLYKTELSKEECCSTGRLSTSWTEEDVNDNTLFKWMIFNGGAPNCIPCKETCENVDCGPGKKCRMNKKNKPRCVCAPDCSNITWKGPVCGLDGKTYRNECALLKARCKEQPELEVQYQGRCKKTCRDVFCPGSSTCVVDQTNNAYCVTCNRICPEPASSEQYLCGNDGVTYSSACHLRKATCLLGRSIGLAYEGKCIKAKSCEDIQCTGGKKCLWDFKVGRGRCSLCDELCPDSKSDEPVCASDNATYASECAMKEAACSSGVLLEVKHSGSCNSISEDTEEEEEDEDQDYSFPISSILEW

The Kd is the concentration at which binding is half-saturated. As to BMP4 (from UniProt P12644), the Kd was 22.5 nM.
